{"source": "the supplement of paper PMC7125110", "parents": {"B1": {"name": "glmS ribozyme (parent)", "chain": "AUAAAAGCGCCAGAACUACAGAAAUGUAGUUGACGAGGAGGAGGUUUAUCGAAUUUUCGGCGGAUGCCUCCAAA"}}, "note": "± gives the standard error. Variants at the floor of the assay were thinned out."}
{"variants_of": "B1", "test": "self-cleavage kobs at 2500 uM GlcN6P; higher = faster cleavage; RNA array", "settings": "with glucosamine-6-phosphate", "outline": "(§1)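 Tiles of sequenced MiSeq chips were imaged over ~14 h at 37 °C. On them, barcoded ribozyme variants had been transcribed in situ by E. coli RNA polymerase and were tracked via a hybridised Cy3 probe while glucosamine-6-phosphate (40 μM to 10 mM) in HEPES/KCl/Mg(OAc)2 buffer flowed in. Per-tile medians, normalised to baseline and to non-cleaving reference variants, were fit to one- or two-exponential decays for kobs, and weighted Michaelis–Menten fits gave kcat and KM.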", "units": {"self-cleavage kobs at 2500 uM GlcN6P": "s⁻¹"}}
{"variant": "AUAAAAGCGCCAGAACUACAGAAAUGUAGUUGACGAGGAGGCGGCUUUUCGAAUUUUCGGAGGAUGCCUCCAAA", "note": "[A42C U45C A48U C61A]", "self-cleavage kobs at 2500 uM GlcN6P": "< 1e-05"}
{"variant": "AUAAAAGCUCCAGAACUACAGAAAUGUAGUUGGCGAGGAGGAGGUUUAUCGACUUUUCGGCGGAUGCCUCCAAA", "note": "[G9U A33G A53C]", "self-cleavage kobs at 2500 uM GlcN6P": "< 1e-05"}
{"variant": "AUAAAAGCGCCAGAACUACAGAAAUGUAGUUGACGAGGAGGAGGUUUAUCGGAUUUAGGGCGGAUGCCUCUAAA", "note": "[A52G U57A C58G C71U]", "self-cleavage kobs at 2500 uM GlcN6P": "7.76e-05 ± 2.9e-05"}
{"variant": "AUAAAAGCGCCAGAGCUACAGAAAUGUAGUUUACGAGGAGGAGGUUUAUCGAAUUUUCGGCGGAUGCCUCGAAA", "note": "[A15G G32U C71G]", "self-cleavage kobs at 2500 uM GlcN6P": "8.85e-05 ± 2.5e-05"}
{"variant": "AUAAAAGCGCCAGAACUACAGAAAUGUAGUUGACGAGCCGGAGGAUUAUCGAAUUUUCGGCGGAUGCCUCCAAA", "note": "[G38C A39C U45A]", "self-cleavage kobs at 2500 uM GlcN6P": "< 1e-05"}
{"variant": "AUAAAAGCGCCAGAACUACAGAAAUGUAGGUUACGAGGAGGAGGUUUAUCGAAUUUUCGGCGGAUGCCUCCAAA", "note": "[U30G G32U]", "self-cleavage kobs at 2500 uM GlcN6P": "0.000223 ± 6.5e-05"}
{"variant": "AUAAAAGCGCGAGAACUACAGAAAUGUAGUUGUCGAGGAGGAGGUGUAUCCAAAUUUCGGCGGAUGCCUCCAAA", "note": "[C11G A33U U46G G51C U54A]", "self-cleavage kobs at 2500 uM GlcN6P": "< 1e-05"}
{"variant": "AUAAAAGCGCCAGAACUACAGAAAUGUACUUCACGAGGAGGAGGUUUAUCGAAUUUUCGGCGGAUGCCUCCAAA", "note": "[G29C G32C]", "self-cleavage kobs at 2500 uM GlcN6P": "2.89e-05 ± 9.4e-06"}
{"variant": "AUAAAAGCGCCAGAACUACAGAAAUGUAGUUGACGAGGAGGAGGUGUAUCGAAUUUUCGGCGGAUACCUACAAA", "note": "[U46G G66A C70A]", "self-cleavage kobs at 2500 uM GlcN6P": "0.00045 ± 0.00016"}
{"variant": "AUAAAAGCGCCAGAACUACAGAAAUGUAGUUUACGAGGAGGAGGUAUAUUGAAUUUUCGGCGGAUGCCUCCAAA", "note": "[G32U U46A C50U]", "self-cleavage kobs at 2500 uM GlcN6P": "< 1e-05"}
{"variant": "AUAAAAGCGCCAUAACUACAGAAAUGUAGUUGACGAGGAGGAGGUUUAUCGAGUUUUCGGCGGAUGCUUCCAAA", "note": "[G13U A53G C68U]", "self-cleavage kobs at 2500 uM GlcN6P": "0.000212 ± 3.7e-05"}
{"variant": "AUAAAAGCGCUAGAGCUACAGAAAUGUAGUUGACGAAGAGGAGGUUUAUCGAAUUUUCGACGGAUGCCUCCAAA", "note": "[C11U A15G G37A G60A]", "self-cleavage kobs at 2500 uM GlcN6P": "< 1e-05"}
{"variant": "AUAAAAGCGCCAGAACUACAGAAAUGUAAUUGACGAGGAGGAGGUUUAUCGAAUUUUCGGCGGAGGCCUCCAAA", "note": "[G29A U65G]", "self-cleavage kobs at 2500 uM GlcN6P": "0.000664 ± 0.00023"}
{"variant": "AUAAAAGCGCCAGAACUACAGAAAUGUAGUUGACGAGGAUGAGGUUUAUGGAAUUUUCGGCAGAUGCCUCCAAA", "note": "[G40U C50G G62A]", "self-cleavage kobs at 2500 uM GlcN6P": "< 1e-05"}
{"variant": "AUAAAAGCACCAGAACUACAGAAAUGUACUUGACGAUGAGGAGGUUUGUCGCAUUUUCGGCGGAUGCCUGCAAA", "note": "[G9A G29C G37U A48G A52C C70G]", "self-cleavage kobs at 2500 uM GlcN6P": "< 1e-05"}
{"variant": "AUAAAAGCGCCAGAACUACAGAAAUGUAGGUGACGAGGAGUAGUUUUAUCGAAUUUUCGGCGGAUGCCUCCAAA", "note": "[U30G G41U G44U]", "self-cleavage kobs at 2500 uM GlcN6P": "< 1e-05"}
{"variant": "AUAAAAGAUCCAGACCUACAGAAAUGUAGUAAACGAGGAGGAGGUUUAUCGAAUUUUCGGCGGAUGCCUACAAA", "note": "[C8A G9U A15C U31A G32A C70A]", "self-cleavage kobs at 2500 uM GlcN6P": "< 1e-05"}
{"variant": "AUAAAAGCGCCAGAACUACAGAAAUGUAGUGGAGGAGGAGGAGGUUUAUCGAAUUUUCGGCGGGUGGCUCCAAA", "note": "[U31G C34G A64G C67G]", "self-cleavage kobs at 2500 uM GlcN6P": "< 1e-05"}
{"variant": "AUAAAAGUGCCAGAACUACAGAAAUGUAGUUGCCGAGGAGGAGGAUUAUCGUAUUUUCGGCGGAUGCCUCCAAA", "note": "[C8U A33C U45A A52U]", "self-cleavage kobs at 2500 uM GlcN6P": "< 1e-05"}
{"variant": "AUAAAAACGCCAGAACUACAGAAAUGUAGUUGACGAGGAGGAGGUUUAUCUAAGUUUCGGCGGAUGCCUCCAAA", "note": "[G7A G51U U54G]", "self-cleavage kobs at 2500 uM GlcN6P": "< 1e-05"}
{"variant": "AUAAAAGCGCCAGAACUACAGAAAUGUAGUUGACGAGGAGGAGGCUUAUCGAAUUUUUCGCGGAUGCCUCCAAA", "note": "[U45C C58U G59C]", "self-cleavage kobs at 2500 uM GlcN6P": "< 1e-05"}
{"variant": "AUAAAAGCGCCAGAACUACAGAAAUGUAGUCGACGCGGAGGAGGUUUAUCGAAUUUUCGGCGUAUGCAUCCAAA", "note": "[U31C A36C G63U C68A]", "self-cleavage kobs at 2500 uM GlcN6P": "0.000118 ± 4e-05"}
{"variant": "AUAAAAGCGCCAGAACUACAGAAAUGUAGUUGACGAGGAGGAGGUCUAUCGAAUUUUCGUCUCAUGCCUCCAAA", "note": "[U46C G60U G62U G63C]", "self-cleavage kobs at 2500 uM GlcN6P": "< 1e-05"}
{"variant": "AUAAAAGCGCCAGAACUACAGAAAUGUAGUUGACGAGGAGUAGGUUGAACGAAUUUUCGGCGGAUCCCUCUAAA", "note": "[G41U U47G U49A G66C C71U]", "self-cleavage kobs at 2500 uM GlcN6P": "< 1e-05"}
{"variant": "AUAAAAGCGCAAGAACUACAGAAAUGUAGUUGACGAACAGGAGGUUUAUCGAAUUUUCGGCGGAUGCCUCCAAA", "note": "[C11A G37A G38C]", "self-cleavage kobs at 2500 uM GlcN6P": "< 1e-05"}
{"variant": "AUAAAAGCGCCGGAACUACAGAAAUGUAGUUGACGAGGAGGAGAUUUAUCGAAUUUUCGGCGGAUGCCUACAAA", "note": "[A12G G44A C70A]", "self-cleavage kobs at 2500 uM GlcN6P": "< 1e-05"}
{"variant": "AUAAAAAAGCCAGAACUACAGAAAUGUAGUUGACGAGGAGUAGGUUUAUCGAAUUUUCGGCGGAUGCCUCCAAA", "note": "[G7A C8A G41U]", "self-cleavage kobs at 2500 uM GlcN6P": "< 1e-05"}
{"variant": "AUAAAAGCGCCAGAACUACAGAAAUGUAGUUGACGAGGAGGAGGUUGAUCGAAUUCUCGGCGGAUGCCUCAAAA", "note": "[U47G U56C C71A]", "self-cleavage kobs at 2500 uM GlcN6P": "5.07e-05 ± 2.5e-05"}
{"variant": "AUAAAAGCGCUAGAACUACAGAAAUGUAGUUGACGAGGAGGAGGUUCAUCGAAUUUUCGGCAGAUGCCUCCAAA", "note": "[C11U U47C G62A]", "self-cleavage kobs at 2500 uM GlcN6P": "< 1e-05"}
{"variant": "AUAAAAGCGCCAGAACUACAGAAAUGUAGUCGACGAGGAUGAGGUUUGUCGAAUUUUCGGUGGAUGCCUCCAAA", "note": "[U31C G40U A48G C61U]", "self-cleavage kobs at 2500 uM GlcN6P": "< 1e-05"}
{"variant": "AUAAAAGCGCCAGAACUACAGAAAUGUAGUUGACGAGGCGGAGGUUUAUCGAAUUUUCGAAGGAUGCCUCCAAA", "note": "[A39C G60A C61A]", "self-cleavage kobs at 2500 uM GlcN6P": "< 1e-05"}
{"variant": "AUAAAAGCGCCAGGACUACAGAAAUGUAGUUGACGAGGAGGAGGUUUGUCGAAUUUUCGGCGGAUGCCUCUAAA", "note": "[A14G A48G C71U]", "self-cleavage kobs at 2500 uM GlcN6P": "0.000156 ± 5.8e-05"}
{"variant": "AUAAAAGCGCCAGAAUUACAGAAAUGUAGUUGACGAGGAGGAAGUUUAUCGAAUUUUCGGCGGAUGACACCAAA", "note": "[C16U G43A C67A U69A]", "self-cleavage kobs at 2500 uM GlcN6P": "6.4e-05 ± 2.1e-05"}
{"variant": "AUAAAAGCGCCAAAACUACAGAAAUGUAGUUGAAGAGGGGGAGGUUUAUCGAAUUUUCAGCCGAUGCCUCCAAA", "note": "[G13A C34A A39G G59A G62C]", "self-cleavage kobs at 2500 uM GlcN6P": "< 1e-05"}
{"variants_of": "B1", "test": "self-cleavage kobs at 10000 uM GlcN6P; higher = faster cleavage; RNA array", "settings": "with glucosamine-6-phosphate", "outline": "as §1", "units": {"self-cleavage kobs at 10000 uM GlcN6P": "s⁻¹"}}
{"variant": "AUAAAAGCGCCAGAACUACAGAAAUGUAGGUUACGAGGAGGAGGUUUAUCGAAUUUUCGGCGGAUGCCUCCAAA", "note": "[U30G G32U]", "self-cleavage kobs at 10000 uM GlcN6P": "0.000612 ± 0.00015"}
{"variant": "AUAAAAGCGCCAGAACUACAGAAAUGUACUUCACGAGGAGGAGGUUUAUCGAAUUUUCGGCGGAUGCCUCCAAA", "note": "[G29C G32C]", "self-cleavage kobs at 10000 uM GlcN6P": "9.51e-05 ± 1.2e-05"}
{"variant": "AUAAAAGCGCCAGAACUACAGAAAUGUAAUUGACGAGGAGGAGGUUUAUCGAAUUUUCGGCGGAGGCCUCCAAA", "note": "[G29A U65G]", "self-cleavage kobs at 10000 uM GlcN6P": "0.00113 ± 0.00027"}
